# Target: thermostable exoshell (tES) (Archaeoglobus fulgidus) (UniProt O29424)
# Test: AUC; unpublished observations; no conditions given
# Chain of UniProt O29424 (O29424 entry or part of it): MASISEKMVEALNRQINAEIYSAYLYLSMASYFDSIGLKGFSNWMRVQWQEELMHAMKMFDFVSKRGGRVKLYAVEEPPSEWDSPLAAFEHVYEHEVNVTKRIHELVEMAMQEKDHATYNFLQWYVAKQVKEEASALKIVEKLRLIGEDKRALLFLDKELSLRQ
substance,measurement,value
horseradish peroxidase (HRP) (from UniProt P00433 31-338) (enzyme),stoichiometry N (HRP molecules per tES),2

# From publication PMC8622885
